According to patent publication US20240299459A1:
One block for each substance: values may come before it.

Experiments:
[1] = molecular target: integrin β1 on human synovium-derived stem cells (human) (UniProt P05556); test: flow cytometry staining of human synovium-derived stem cells, third lot listed (ST1434)
[2] = molecular target: integrin β1 on human synovium-derived stem cells (human) (UniProt P05556); test: flow cytometry staining of human synovium-derived stem cells, fourth lot listed (ST1462)
[3] = molecular target: integrin β1 on human synovium-derived stem cells (human) (UniProt P05556); test: flow cytometry staining of human synovium-derived stem cells, second lot listed (ST1420)
[4] = molecular target: integrin β1 on human synovium-derived stem cells (human) (UniProt P05556); test: flow cytometry staining of human synovium-derived stem cells, first lot listed (ST1414)
[5] = molecular target: platelet-derived growth factor receptor β on rat synovium-derived mesenchymal stem cells (rat) (UniProt Q05030); test: flow cytometry staining of rat synovium-derived MSC with FITC anti-goat secondary, TrypLE detachment 60 minutes
[6] = molecular target: platelet-derived growth factor receptor β on human synovium-derived stem cells (human) (UniProt P09619); test: flow cytometry staining of human synovium-derived stem cells, third lot listed (ST1434)
[7] = molecular target: platelet-derived growth factor receptor β on human synovium-derived stem cells (human) (UniProt P09619); test: flow cytometry staining of human synovium-derived stem cells, fourth lot listed (ST1462)
[8] = molecular target: platelet-derived growth factor receptor β on rat synovium-derived mesenchymal stem cells (rat) (UniProt Q05030); test: flow cytometry staining of rat synovium-derived MSC with FITC anti-goat secondary, TrypLE detachment 30 minutes
[9] = molecular target: platelet-derived growth factor receptor β on rat synovium-derived mesenchymal stem cells (rat) (UniProt Q05030); test: flow cytometry staining of rat synovium-derived MSC with FITC anti-goat secondary, TrypLE detachment 5 minutes
[10] = molecular target: platelet-derived growth factor receptor β on human synovium-derived stem cells (human) (UniProt P09619); test: flow cytometry staining of human synovium-derived stem cells, second lot listed (ST1420)
[11] = molecular target: platelet-derived growth factor receptor β on rat synovium-derived mesenchymal stem cells (rat) (UniProt Q05030); test: flow cytometry staining of rat synovium-derived MSC with FITC anti-goat secondary, TrypLE detachment 120 minutes
[12] = molecular target: platelet-derived growth factor receptor β on rat synovium-derived mesenchymal stem cells (rat) (UniProt Q05030); test: cell-based or functional assay
[13] = molecular target: platelet-derived growth factor receptor β on human synovium-derived stem cells (human) (UniProt P09619); test: flow cytometry staining of human synovium-derived stem cells, first lot listed (ST1414)
[14] = molecular target: integrin β1 on rat synovium-derived mesenchymal stem cells (rat) (UniProt P49134); test: flow cytometry staining of rat synovium-derived MSC cultured 21 days, TrypLE detachment 120 minutes
[15] = molecular target: integrin β1 on rat synovium-derived mesenchymal stem cells (rat) (UniProt P49134); test: flow cytometry staining of rat synovium-derived MSC, TrypLE detachment 60 minutes
[16] = molecular target: integrin β1 on rat synovium-derived mesenchymal stem cells (rat) (UniProt P49134); test: flow cytometry staining of rat synovium-derived MSC cultured 28 days, TrypLE detachment 120 minutes
[17] = molecular target: integrin β1 on rat synovium-derived mesenchymal stem cells (rat) (UniProt P49134); test: flow cytometry staining of rat synovium-derived MSC, TrypLE detachment 30 minutes
[18] = molecular target: integrin β1 on rat synovium-derived mesenchymal stem cells (rat) (UniProt P49134); test: flow cytometry staining of rat synovium-derived MSC cultured 8 days, TrypLE detachment 120 minutes
[19] = molecular target: integrin β1 on rat synovium-derived mesenchymal stem cells (rat) (UniProt P49134); test: flow cytometry staining of rat synovium-derived MSC, TrypLE detachment 120 minutes
[20] = molecular target: integrin β1 on rat synovium-derived mesenchymal stem cells (rat) (UniProt P49134); test: flow cytometry staining of rat synovium-derived MSC, TrypLE detachment 5 minutes

UniProt P09619, sequence (P09619 33-1106): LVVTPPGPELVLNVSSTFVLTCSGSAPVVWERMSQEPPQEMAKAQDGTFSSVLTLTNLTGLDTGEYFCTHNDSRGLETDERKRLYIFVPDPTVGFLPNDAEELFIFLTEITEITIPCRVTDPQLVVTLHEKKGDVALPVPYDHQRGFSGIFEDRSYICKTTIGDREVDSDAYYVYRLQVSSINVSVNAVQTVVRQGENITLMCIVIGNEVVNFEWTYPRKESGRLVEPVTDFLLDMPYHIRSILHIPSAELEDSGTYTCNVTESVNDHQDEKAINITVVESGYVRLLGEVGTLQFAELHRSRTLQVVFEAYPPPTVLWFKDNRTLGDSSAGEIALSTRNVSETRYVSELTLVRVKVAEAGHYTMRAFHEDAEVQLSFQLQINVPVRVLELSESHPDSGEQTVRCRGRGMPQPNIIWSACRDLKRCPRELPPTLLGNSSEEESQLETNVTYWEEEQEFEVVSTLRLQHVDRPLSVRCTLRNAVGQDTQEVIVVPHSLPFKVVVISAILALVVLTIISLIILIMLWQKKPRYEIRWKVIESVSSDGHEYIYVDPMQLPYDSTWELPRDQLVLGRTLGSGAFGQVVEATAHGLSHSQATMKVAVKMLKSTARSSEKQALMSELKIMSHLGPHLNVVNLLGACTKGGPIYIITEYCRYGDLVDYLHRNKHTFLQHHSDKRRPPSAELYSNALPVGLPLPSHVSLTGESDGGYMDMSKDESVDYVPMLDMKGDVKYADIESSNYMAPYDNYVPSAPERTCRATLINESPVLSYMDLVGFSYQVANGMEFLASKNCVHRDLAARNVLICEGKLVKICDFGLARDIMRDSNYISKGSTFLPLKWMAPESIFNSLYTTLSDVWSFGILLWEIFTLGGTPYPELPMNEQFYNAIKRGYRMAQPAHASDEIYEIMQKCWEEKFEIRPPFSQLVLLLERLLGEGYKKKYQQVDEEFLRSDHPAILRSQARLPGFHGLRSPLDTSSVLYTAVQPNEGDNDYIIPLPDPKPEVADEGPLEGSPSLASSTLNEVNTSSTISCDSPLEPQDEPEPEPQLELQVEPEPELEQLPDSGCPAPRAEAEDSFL
UniProt Q05030, sequence (Q05030 32-1097): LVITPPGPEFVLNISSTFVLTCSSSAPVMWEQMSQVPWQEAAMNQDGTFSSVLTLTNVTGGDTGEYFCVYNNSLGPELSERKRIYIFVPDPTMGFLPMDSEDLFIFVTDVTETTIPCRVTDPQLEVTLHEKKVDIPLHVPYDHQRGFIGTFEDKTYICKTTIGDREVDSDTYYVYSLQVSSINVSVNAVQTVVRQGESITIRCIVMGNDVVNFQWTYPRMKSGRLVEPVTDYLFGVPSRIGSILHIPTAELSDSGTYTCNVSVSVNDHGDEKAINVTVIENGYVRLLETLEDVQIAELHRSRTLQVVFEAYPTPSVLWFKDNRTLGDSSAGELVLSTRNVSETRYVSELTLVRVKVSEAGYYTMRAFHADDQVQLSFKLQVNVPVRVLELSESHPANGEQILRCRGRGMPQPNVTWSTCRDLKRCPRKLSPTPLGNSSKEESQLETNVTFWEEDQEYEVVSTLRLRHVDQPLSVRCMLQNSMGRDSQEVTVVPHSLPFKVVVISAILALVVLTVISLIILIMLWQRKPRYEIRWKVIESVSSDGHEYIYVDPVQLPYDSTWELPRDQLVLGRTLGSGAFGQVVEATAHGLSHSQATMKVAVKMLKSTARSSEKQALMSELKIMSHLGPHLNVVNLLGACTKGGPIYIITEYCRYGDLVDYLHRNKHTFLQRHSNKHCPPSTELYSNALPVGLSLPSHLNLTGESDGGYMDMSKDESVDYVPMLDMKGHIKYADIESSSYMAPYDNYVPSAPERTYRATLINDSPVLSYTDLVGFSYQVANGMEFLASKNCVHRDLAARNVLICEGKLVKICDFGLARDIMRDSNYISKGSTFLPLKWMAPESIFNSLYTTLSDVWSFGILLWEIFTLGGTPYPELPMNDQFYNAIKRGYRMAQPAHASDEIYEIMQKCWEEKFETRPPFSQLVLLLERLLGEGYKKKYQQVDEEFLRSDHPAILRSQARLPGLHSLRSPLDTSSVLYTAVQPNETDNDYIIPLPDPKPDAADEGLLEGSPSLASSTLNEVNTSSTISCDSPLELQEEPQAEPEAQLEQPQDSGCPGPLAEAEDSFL
UniProt P49134, sequence (P49134 21-798): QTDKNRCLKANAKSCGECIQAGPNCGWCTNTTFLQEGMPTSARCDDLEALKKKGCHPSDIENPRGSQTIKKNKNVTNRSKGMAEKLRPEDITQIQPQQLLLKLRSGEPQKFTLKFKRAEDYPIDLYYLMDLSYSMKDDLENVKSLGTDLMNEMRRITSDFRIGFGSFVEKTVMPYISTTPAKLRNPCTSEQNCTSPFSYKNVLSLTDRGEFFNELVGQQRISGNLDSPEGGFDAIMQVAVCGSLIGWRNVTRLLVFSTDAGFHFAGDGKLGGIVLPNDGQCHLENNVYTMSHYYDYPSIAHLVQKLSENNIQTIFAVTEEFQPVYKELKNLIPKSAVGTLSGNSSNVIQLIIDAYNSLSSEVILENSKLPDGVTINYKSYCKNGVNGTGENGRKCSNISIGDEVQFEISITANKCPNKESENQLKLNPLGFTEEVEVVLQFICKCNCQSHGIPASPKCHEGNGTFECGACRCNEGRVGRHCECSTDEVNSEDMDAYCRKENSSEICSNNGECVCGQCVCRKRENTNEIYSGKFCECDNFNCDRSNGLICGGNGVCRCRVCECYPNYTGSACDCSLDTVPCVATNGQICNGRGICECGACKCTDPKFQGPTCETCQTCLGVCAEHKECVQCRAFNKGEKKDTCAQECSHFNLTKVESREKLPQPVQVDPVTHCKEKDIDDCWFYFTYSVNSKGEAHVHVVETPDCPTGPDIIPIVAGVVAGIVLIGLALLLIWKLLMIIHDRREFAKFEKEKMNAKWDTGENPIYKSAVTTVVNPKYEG
UniProt P05556, sequence (P05556 21-798): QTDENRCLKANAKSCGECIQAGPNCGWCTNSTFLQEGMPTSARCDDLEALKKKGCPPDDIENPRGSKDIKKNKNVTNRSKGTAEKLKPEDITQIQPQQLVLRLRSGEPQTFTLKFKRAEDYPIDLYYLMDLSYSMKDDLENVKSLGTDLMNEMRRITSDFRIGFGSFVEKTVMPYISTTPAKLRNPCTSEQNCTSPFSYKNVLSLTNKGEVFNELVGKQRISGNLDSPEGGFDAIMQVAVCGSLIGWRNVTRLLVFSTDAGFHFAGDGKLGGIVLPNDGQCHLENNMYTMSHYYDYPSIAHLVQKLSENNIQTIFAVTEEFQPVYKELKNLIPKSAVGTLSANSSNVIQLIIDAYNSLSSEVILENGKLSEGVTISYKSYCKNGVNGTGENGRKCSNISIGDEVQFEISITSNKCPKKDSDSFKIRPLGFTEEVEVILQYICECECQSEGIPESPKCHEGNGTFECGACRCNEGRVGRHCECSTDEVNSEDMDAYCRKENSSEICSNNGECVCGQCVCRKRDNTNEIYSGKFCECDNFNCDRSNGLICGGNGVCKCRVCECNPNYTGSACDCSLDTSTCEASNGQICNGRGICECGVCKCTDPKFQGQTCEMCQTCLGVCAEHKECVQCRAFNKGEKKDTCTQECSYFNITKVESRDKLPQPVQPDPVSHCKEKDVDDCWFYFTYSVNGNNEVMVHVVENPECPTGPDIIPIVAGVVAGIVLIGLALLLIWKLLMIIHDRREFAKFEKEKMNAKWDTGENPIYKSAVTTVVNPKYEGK

surface antigen positive rate [1]: 99.6%
surface antigen positive rate [2]: 99.5%
surface antigen positive rate [3]: 99.6%
surface antigen positive rate [4]: 99.4%
Substance: APC Mouse Anti-Human CD29, Cat: 559883 (antibody)

Expression rate (percent positive cells) [5]: 63.3%
surface antigen positive rate [6]: 95.2%
surface antigen positive rate [7]: 85.9%
Expression rate (percent positive cells) [8]: 76.9%
Expression rate (percent positive cells) [9]: 91.6%
surface antigen positive rate [10]: 90.7%
Expression rate (percent positive cells) [11]: 32.8%
ATP concentration (cell proliferation with rat PDGF-BB 4 ng/mL, Cell Titer Glo, 6th day of culture), 10 µg/mL PDGFRb-rSMSC [12]: 0.62 µmol/L
ATP concentration (cell proliferation with rat PDGF-BB 4 ng/mL, Cell Titer Glo, 6th day of culture), 20 µg/mL PDGFRb-rSMSC [12]: 0.65 µmol/L
ATP concentration (cell proliferation with rat PDGF-BB 4 ng/mL, Cell Titer Glo, 6th day of culture), 40 µg/mL PDGFRb-rSMSC [12]: 0.24 µmol/L
ATP concentration (cell proliferation, Cell Titer Glo, 6th day of culture), 40 µg/mL PDGFRb-rSMSC [12]: 3.78 µmol/L
ATP concentration (cell proliferation, Cell Titer Glo, 6th day of culture), 120 µg/mL PDGFRb-rSMSC [12]: 4.12 µmol/L
surface antigen positive rate [13]: 92.2%
Substance: Anti-PDGF Receptor β Human Goat-Poly (R & D Systems Cat. No. AF385) (antibody)

Expression rate (percent positive cells) [14]: 62.1%
Expression rate (percent positive cells) [15]: 96.1%
Expression rate (percent positive cells) [16]: 56.1%
Expression rate (percent positive cells) [17]: 99.7%
Expression rate (percent positive cells) [18]: 97.8%
Expression rate (percent positive cells) [19]: 97.8%
Expression rate (percent positive cells) [20]: 98.7%
Substance: PE anti-mouse/rat integrin β1 Antibody (Biolegend Cat. No. 102207)
